# Test: yeast display, Sf9 membrane polyspecificity reagent, FACS + sequencing; frameworks hold sequencing errors
# In short: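 A synthetic nanobody library was expressed on Saccharomyces cerevisiae BJ5465 by galactose induction for 36–48 hours. The library was stained for 1 hour at 4 °C with 10% biotinylated, detergent-solubilized Sf9 membrane reagent and enriched with streptavidin microbeads before FACS. Low and high (top ~1%) gates were set on anti-HA fluorescence for expression and streptavidin fluorescence for reagent binding, and each polyreactivity label reflects the gate of origin.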
row,Sequence,polyreactivity (PSR sort gate)
1,QVQLVESGGGLVQAGGSLRLSCAASGSIFASNAMGWYSPAPGKERELVAAINSGDSTNYADSVKGRFTISRDNAKNTVYLQMNSLKPEDTAVYYCARGLEERYDYWGQGTQVTVSS,low polyreactivity
2,QVQLVESGGGLVQAGGSLRLSCAASGSIFASYAMGWYRQAPGKERELVAAISRSGTSTRYADSVKGRFTISRDNAKNTVYLLMNSLKPEDTAVYYCAARWYVFFRKYDYWGQGTQVTVSS,high polyreactivity
3,QVQLVESGGGLVQAGGSLRLSCAASGSIFASYGLGWYRQAPGKARELVAAITSRGTSTYYADSVKGRFTISRDNAKNTVDLQMHSLKPEETAVYYCAARLYGSAPQHEYWGQGTQVTVSS,low polyreactivity
4,QVQLVESGGGLVQAGGSLRLSCAASGSIFATYAMGWYRQAPGKERELVAAITASDGSTNYADSVKGRFTLSRDNAQNTVYLQMNSLKPEDTAVYYCATDAPYRTDSDSGFDAGYDYWGQGTQVTLSS,low polyreactivity
5,QVQLVESGGGLVQAGGSLRLSCAASGSIFAVNAMGWYRQAPGKERELVASITSGGSTNYADSVKGRFTISRDNAKNTVYLQMNSLKPEDTAVYYCNADRVRAVSRYDYWGQGTQLTVSS,low polyreactivity
6,QVQLVESGGGLVQAGGSLRLSCAASGSIFAVYAMGWYRQAPGKERELVAVITRSGGSTYYADSVKGRFTISRDNAKNTVYLQMNSLKPEDTAVYYCAARTGYGYTRYEYWGQGTQVTVSS,high polyreactivity
7,QVQLVESGGGLVQAGGSLRLSCAASGSIFAVYAMGWYRQAPGKERELVAVITRSGGSTYYADSVKGRFTISRDNAKNTVYLQMNTLKPEDTADYYCAARTGYGYTRYEYWGQGTQVTVSS,high polyreactivity
8,QVQLVESGGGLVQAGGSLRLSCAASGSIFAWYAMGWYRQAPGKERELVADITQSGGSTYYADSVKGRFTISRDNAKNTVYLQMNSLKPEDTAVYYCVDYWYNYLQSGWEDDYWGQGTQVTVSS,low polyreactivity
9,QVQLVESGGGLVQAGGSLRLSCAASGSIFAWYGMGWSRQAPGKERELVAAISTAGSTNYADSVKGRFTISRDNAKNTVYFQMNSLKPEDTAVYYCAKKSSWYYPERFDYWGQGTQVTVSS,low polyreactivity
10,QVQLVESGGGLVQAGGSLRLSCAASGSIFAYNAMGWYRQAPGKERELVAAITISGGRTYYADSVKGRFTISRDNAKNTVYLQMNSLKPEDTAVYYCAARYPSGTRKWYGYWGQGTQVTVSS,high polyreactivity
11,QVQLVESGGGLVQAGGSLRLSCAASGSIFAYNAMGWYRQAPGKERELVASISTGDSTNYADSVKGRFTISRENAKNTDYLQMNSMKPEDTAVYYCNADSYPYYVYGSNVYWGQGSQVTVSS,low polyreactivity
12,QVQLVESGGGLVQAGGSLRLSCAASGSIFAYYAMGWSRQAPGKERELVASIDWSGDLYVRDSVKGRFTISRDNAKNTVYLQMNSLKPEDTAVYYCAADVGFGVVFYDYWGQGTQVTVSS,low polyreactivity
13,QVQLVESGGGLVQAGGSLRLSCAASGSIFAYYAMGWYRQAPGKERELVADITSSGGITYYADSVKGRFTISRDNAKNTVYLQMNSLKPEDTAVYYCNADSWAIGGGSYPYDYWGQGTQVTVSS,low polyreactivity
14,QVQLVESGGGLVQAGGSLRLSCAASGSIFCSYAMAWYRQAPGKERELVASITRSGGSTYYADSVKGRFTISRDNAKNTVYLQMNSLKPEDTAVYYCNARRTTRWGSSKYEYDYWGQGTQVTVSS,high polyreactivity
15,QVQLVESGGGLVQAGGSLRLSCAASGSIFCSYAMGWYRQAPGKERELVAAITWSGGNTYADSVKGRFTISRDNAKNTDYLQMNSLKPEDTAVYYCAADPAHGTKWYVYPSHDDYWGQGTQGTVSS,low polyreactivity
16,QVQLVESGGGLVQAGGSLRLSCAASGSIFDAYAMGWYRQATGKERELVAAITYSGGSTYYADSVKGRFTISRDNAKNTVYLQMNSLKPEDTAVYYCNTDSRVRTWFRAFTYDSWGQGTQVTVSS,low polyreactivity
17,QVQLVESGGGLVQAGGSLRLSCAASGSIFDDYAMGWYRQAPGKEREFVATITTSGGNTYYADSVKGRFTISRDNAKNTVYLQMHSLKPEDTAVYYCAKDRVKSPYLVYDSWGQGTQVTVSS,low polyreactivity
18,QVQLVESGGGLVQAGGSLRLSCAASGSIFDDYAMGWYRQAPGKERELVAAITSGGSTYYADSVKGRFTISRDNAKNTVYLQMTSLKPEDTAVYYRATRYHWSSTFAPVGAGRGGDSWGQGTQVTVSS,low polyreactivity
19,QVQLVESGGGLVQAGGSLRLSCAASGSIFDDYTMVWYRQAPGKEREFVATITSSGSTYYADSVKGRFTISRDNAKNTVYLQMNSLKPEDTAVYYCNADDTYYPLGGITGYDYWGQGTQVTVSS,low polyreactivity
20,QVQLVESGGGLVQAGGSLRLSCAASGSIFDEYAMGWYRQAPGKERELVAAITRTGGRTYYADSVKGRFTISRDNAKNTVYLQMNSLKPEDTAVYYSAKGTNYRDDYWGQGTQVTVSS,low polyreactivity
21,QVQLVESGGGLVQAGGSLRLSCAASGSIFDEYAMGWYRQAPGKERELVAAITYSGGDTYYADSVKGRFTISRDNAKNTVYLQMNSLKPEDTAVYYCAVDTPLEYYHQQAYVAGEYWGQGTQVTVSS,low polyreactivity
22,QVQLVESGGGLVQAGGSLRLSCAASGSIFDFSAMGWYRQAPGKERELVAAISGSGGSTYYADSVKGRFTISRDNAKNTVYLQMNSLKPEDTAVYYCSYYYWGQGTQVTVSS,low polyreactivity

row,Sequence,polyreactivity (PSR sort gate)
1,QVQLVESGGGLVQAGGSLRLSCAASGSIFDGNAMGWYREAPGKERELVAAISRRAGSTYYADSVKGRFTISRDNAKNTVYLQMNSLNPEDTAVYYCAASLYVPRFSRLGYDYWGQGTHVTVSS,high polyreactivity
2,QVQLVESGGGLVQAGGSLRLSCAASGSIFDGYGMGWYRQAAGKERELVAGITSGGSTYYADSVKGRFTFSRDNAKNTVYLQMNSLIPEDTAVYYCATVVRYSNARGDYWGQGTQVTVSS,low polyreactivity
3,QVQLVESGGGLVQAGGSLRLSCAASGSIFDHYARGWYRQAPGKDRELVAAISRSAGSTYYADSVKGRFTISRDHAKNTVYLQMNSLKPEDTAVYYCAADGKYYHRRPGWPIYDYWGQGTQVTVSS,high polyreactivity
4,QVQLVESGGGLVQAGGSLRLSCAASGSIFDINAMGWYRQAPGKERELVADISWSGGRTYYADSVKGRFTISRDNAKNTVYLQMNSLKPEDTAVYYCNAQDSRFWYAEYDYWGQGNQVTVSS,low polyreactivity
5,QVQLVESGGGLVQAGGSLRLSCAASGSIFDIYAMAWYRQAPGKERELVARIRGSGGRTYYADSVKGRFTISRDNAKNTVYLQMNSLKPEDTAVYYCNAGVRAVNRKYDYWGQGTQVTVSS,high polyreactivity
6,QVQLVESGGGLVQAGGSLRLSCAASGSIFDIYAMGWYREAPGKERELVAAISGRGGSTYADSVKGRFTISRDNAKNTVYLQMNSLKPEDTAVYYCATERHRFGGLYYWGQGTQVTVSS,low polyreactivity
7,QVQLVESGGGLVQAGGSLRLSCAASGSIFDIYAMGWYRQAPGKERELVAAISWIGDSTSYAESVKGRFTISRDNAKNTVYLQMNSLKPEDTAVYYCNAVVQGLADFQKYDYWGQGTQVTVSS,low polyreactivity
8,QVQLVESGGGLVQAGGSLRLSCAASGSIFDIYGMGWYRQAPGKERELVASISGGAGSTNYADSVKGRFTISRDNAKNTVYLQMNSLNPEDTAVYYCAAEVYVPDYFQHKFDVEYEYWGQGTQVTVSS,low polyreactivity
9,QVQLVESGGGLVQAGGSLRLSCAASGSIFDLNAMGWYRQAPGKERELVAAISKSGGSTYYADSVKGRFTISRDNAKNTVYLQMNSLKPEDTAVYYCAARYHYPGNWYNYWGQGTQVTVSS,low polyreactivity
10,QVQLVESGGGLVQAGGSLRLSCAASGSIFDLYAMGWYRQAPGKERELVADISIADSTNYADSVKGRFTISRDNAKNTVYLQMNSLKPEDTGVYYCNADVWWYSYEYDYWGQGTQVTVSS,low polyreactivity
11,QVQLVESGGGLVQAGGSLRLSCAASGSIFDLYAMGWYRQAPGTERELVADISIADSTNYADSVKGRFTISRDNAKNTVYLQMNSLKPEDTAVYYCNADVWWYSYEYDYWGQGTQVTVSS,low polyreactivity
12,QVQLVESGGGLVQAGGSLRLSCAASGSIFDNAMGWYRQAPGKERELVAAISLSGSRTYYADSVKGRFTISRDNAKNTDYLQMNSLKPEDTAVYYCNTELVYYSTYDYWGQGTQVTVSS,low polyreactivity
13,QVQLVESGGGLVQAGGSLRLSCAASGSIFDNNAMGWYRQAPGKERELVAAISRSGGSTYYADSVKGRFTISRDNAKNTVYLQMNSLKPDDTAVYYCAALPSRPRGYDYWGQGTQVTVSS,high polyreactivity
14,QVQLVESGGGLVQAGGSLRLSCAASGSIFDNYAMGWYRQAPGKERELVAAITSSGNTSYADSVKGRFTISRDNAKNTVYLQMNSLKPEDTAVYYCNADSQVKYTYNNHFDYWGQGTQVTVSS,low polyreactivity
15,QVQLVESGGGLVQAGGSLRLSCAASGSIFDPNAMGWYRQAPGKERELVAAISTSTGNTYYADSVKGRCTISRDNAKNTVYLQMNSLKPEDTAVYYCAAKGTPSYGSYHYDMDYWGQGTQVTVSS,low polyreactivity
16,QVQLVESGGGLVQAGGSLRLSCAASGSIFDPNAMGWYRQAPGKERELVAAITSGGGSTYYADSVKGRFTISRDNAKNTVYLEMNSLKPEDTAVYYCNKVFVLPYKFVAWFDYWGQGTQVTVSS,low polyreactivity
17,QVQLVESGGGLVQAGGSLRLSCAASGSIFDPYAMGWYIQAPGKERELVAVINDGGRTTYADSVKGRFTISRDNAKNTVYLQMNSLKPEDTAVYYCAADVGYFKSDYWGQGTQVTVSS,low polyreactivity
18,QVQLVESGGGLVQAGGSLRLSCAASGSIFDPYAMGWYRQAPGKERELVAAISFRGGGTYYADSVKGRFTISRDNAKNTVYLQMNSLKPEDTAVYYCNVDYYWISGYVGSYIEFDYWGQGTQVTVSS,low polyreactivity
19,QVQLVESGGGLVQAGGSLRLSCAASGSIFDPYAMGWYRQAPGKERELVAAISWSDSSTYYADSVKGRFTISRDNEKNTVYLQMNSLKPEDTAVYYSAAPSRYRYYWGNYWGQGTQVTVSS,high polyreactivity
20,QVQLVESGGGLVQAGGSLRLSCAASGSIFDPYAMGWYRQAPGKERELVAAITASGSSTYYADSVKGRFTISRDNAKNTVYLQMNSLKPEDTAVYYCAADRANWEYLLSWLGYDYWGQGTQVTVSS,low polyreactivity
21,QVQLVESGGGLVQAGGSLRLSCAASGSIFDQYTMGWSRQAPGKERELVAAIRFSGGSTSYADSVKGRFTISRDNAKNTVYLQMNSLIPEDTAVYYCNVDAITWWDWEDFDYWGQGTQVTVSS,low polyreactivity

# Reference: the nanobody polyreactivity screen of Harvey et al. (2022)
